In general, koff refers to the rate constant with which the complex falls apart. The term Kd denotes the constant that tells how readily two partners part at equilibrium. A lower Kd goes with tighter binding. For orientation: kon means the second-order rate constant of association.

Values joined by “and” are separate entries in the source; they are usually repeats but may differ in a detail not shown here. Equal entries are not always repeated. Where two headings read alike, the source gives them in different places.

The target in test [1] is T1, De-sialylated human CLEC12A (human, UniProt Q5QGZ9 65-265, treated with neuraminidase (terminal sialic acids removed)).
T1 construct: Same recombinant antigen as m2 after neuraminidase; also called De-sialylated CLEC12A
T1 sequence: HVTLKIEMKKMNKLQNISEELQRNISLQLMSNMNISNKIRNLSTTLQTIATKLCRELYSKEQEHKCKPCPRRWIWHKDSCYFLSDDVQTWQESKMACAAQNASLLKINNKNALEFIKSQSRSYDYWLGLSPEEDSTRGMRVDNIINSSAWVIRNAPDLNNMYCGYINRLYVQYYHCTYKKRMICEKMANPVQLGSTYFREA
Put plainly: SPR, two-state fit (kd1). (Surface plasmon resonance follows binding to a sensor surface in real time, without labels.)
Procedure: (§1) Briefly, human Fc specific antibodies were covalently immobilized at a density ˜8000-10000 resonance units (RU) on carboxy methyl dextran matrix of a CM5 biosensor chip via amine-coupling chemistry to create an anti-hFc IgG chip. […] Association was monitored for 300 seconds and dissociation was monitored for 600 seconds. Surfaces were regenerated between cycles with three pulses of 10 mM glycine-HCl, pH 1.7 injected for 20 seconds at 100 μl/min. HBS-EP+ (1×) with 0.1 mg/ml BSA was used as running buffer throughout the experiment. Experiments were performed at physiological temperature of 37° C. To obtain kinetic rate constants and overall binding affinity, double-referenced data were fit to a two-state kinetic model using Biacore 8K Insight Evaluation software (Cytiva).

The target of test [2] is T2, De-glycosylated human CLEC12A (human, UniProt Q5QGZ9 65-265, treated with PNGaseF (N-linked glycans removed)).
T2 construct: Same recombinant antigen as m2 after PNGaseF; also called De-glycosylated CLEC12A
T2 sequence: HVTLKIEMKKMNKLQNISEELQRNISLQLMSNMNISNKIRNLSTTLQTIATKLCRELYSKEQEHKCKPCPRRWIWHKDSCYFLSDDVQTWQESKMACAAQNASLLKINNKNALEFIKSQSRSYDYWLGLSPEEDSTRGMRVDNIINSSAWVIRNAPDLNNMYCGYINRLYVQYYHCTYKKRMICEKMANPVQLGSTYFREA
Briefly: SPR, two-state fit (kd1).
Procedure: as §1

The target of test [3] is T3, Human CLEC12A-His (recombinant, K244 WT) (human, UniProt Q5QGZ9 65-265).
T3 construct: Made in house (Dragonfly Tx); also called hCLEC12A; hCLEC12A-His; not shown: His tag
T3 sequence: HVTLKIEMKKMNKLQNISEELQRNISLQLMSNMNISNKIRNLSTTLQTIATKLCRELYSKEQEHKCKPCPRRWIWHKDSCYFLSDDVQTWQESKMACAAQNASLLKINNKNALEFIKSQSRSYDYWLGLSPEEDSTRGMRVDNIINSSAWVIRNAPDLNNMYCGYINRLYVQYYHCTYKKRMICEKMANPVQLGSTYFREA
Briefly: SPR, two-state fit (kd1); control sample.

Test [4] has as its target T3, Human CLEC12A-His (recombinant, K244 WT). Put plainly: SPR, two-state fit (kd1); control sample. This is another data set of the same source.
Procedure: as §1
Test [5] has the same target. Put plainly: SPR, two-state fit (kd1); control sample. The source holds these as a separate data set.
Procedure: as §1
Test [6] has as its target T4, Human CD16a V158 (FcγRIIIa V158) (human, UniProt P08637 17-208, biotinylated).
T4 construct: Bought recombinant receptor; also called hCD16aV; hFcγRIIIa V158
Put plainly: SPR 25C, biotinylated CD16a V158 captured.
Procedure: Human and cynomolgus CD64, high and low affinity alleles of CD16a (V158 and F158, respectively), two alleles of CD32a (H131 and R131), CD16b, CD32b and cynomolgus CD16 were captured via biotin on a primed (according to the manufacturers instruction) Biacore chip. […] Due to irreversibility of streptavidin-biotin interaction, the capture step for all receptors except FcγRI (CD64) was performed just once prior to the start of the binding experiment. hCD64 and cyno CD64 capture on the CAP chip surface was performed during each cycle in accordance with the manufacturer's instructions for the Biotin CAPture kit.

T4 sequence (P08637 17-208 F176V limits assumed): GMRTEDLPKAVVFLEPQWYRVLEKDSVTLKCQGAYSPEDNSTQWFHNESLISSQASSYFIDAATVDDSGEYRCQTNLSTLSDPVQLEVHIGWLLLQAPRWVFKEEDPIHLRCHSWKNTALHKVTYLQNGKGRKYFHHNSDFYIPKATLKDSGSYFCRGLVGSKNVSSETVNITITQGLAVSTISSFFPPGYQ

B1: AB0089 TriNKET (bispecific antibody, human IgG1, kappa)
chain: QLQLQESGPGLVKPSETLSLTCTVSGFSLTNYGLHWIRQPPGKCLEWIGVIWVGGATDYNPSLKSRVTISVDTSKNQFSLKLSSVQAADTAVYYCAKGDYGDTLDYWGQGTLVTVSSGGGGSGGGGSGGGGSGGGGSDIQMTQSPSSLSASVGDRVTITCHASQNINFWLSWYQQKPGKAPKLLIYEASNLHTGVPSRFSGSGSGTDFTLTISSLQPEDFATYYCQQSHSYPLTFGCGTKLEIKGSDKTHTCPPCPAPELLGGPSVFLFPPKPKDTLMISRTPEVTCVVVDVSHEDPEVKFNWYVDGVEVHNAKTKPREEQYNSTYRVVSVLTVLHQDWLNGKEYKCKVSNKALPAPIEKTISKAKGQPREPRVYTLPPCRDELTKNQVSLTCLVKGFYPSDIAVEWESNGQPENNYKTTPPVLVSDGSFTLYSKLTVDKSRWQQGNVFSCSVMHEALHNHYTQKSLSLSPG
heavy: EVQLVESGGGLVKPGGSLRLSCAASGFTFSSYSMNWVRQAPGKGLEWVSSISSSSSYIYYADSVKGRFTISRDNAKNSLYLQMNSLRAEDTAVYYCARGAPIGAAAGWFDPWGQGTLVTVSSASTKGPSVFPLAPSSKSTSGGTAALGCLVKDYFPEPVTVSWNSGALTSGVHTFPAVLQSSGLYSLSSVVTVPSSSLGTQTYICNVNHKPSNTKVDKKVEPKSCDKTHTCPPCPAPELLGGPSVFLFPPKPKDTLMISRTPEVTCVVVDVSHEDPEVKFNWYVDGVEVHNAKTKPREEQYNSTYRVVSVLTVLHQDWLNGKEYKCKVSNKALPAPIEKTISKAKGQPREPQVCTLPPSRDELTENQVSLTCLVKGFYPSDIAVEWESNGQPENNYKTTPPVLDSDGSFFLYSWLTVDKSRWQQGNVFSCSVMHEALHNHYTQKSLSLSPG
light: DIQMTQSPSSVSASVGDRVTITCRASQGISSWLAWYQQKPGKAPKLLIYAASSLQSGVPSRFSGSGSGTDFTLTISSLQPEDFATYYCQQGVSFPRTFGGGTKVEIKRTVAAPSVFIFPPSDEQLKSGTASVVCLLNNFYPREAKVQWKVDNALQSGNSQESVTEQDSKDSTYSLSSTLTLSKADYEKHKVYACEVTHQGLSSPVTKSFNRGEC
notes: F3' format heterodimer of three chains; human IgG1 Fc with EW-RVT and Y349C/S354C mutations; also called AB0089 Lot AB0089-002; CLEC12A TriNKET AB0089
Take B1: the koff in test [1] is 0.0329 s⁻¹; in test [2], 0.00633 s⁻¹; in test [3], 0.042 s⁻¹; in test [4], 0.0476 s⁻¹; in test [5], 0.0435 s⁻¹; in test [6], 0.0294 s⁻¹ and 0.0264 s⁻¹ and 0.0272 s⁻¹. In test [6], the Kd was 336 nM and 343 nM and 321 nM. Besides, the kon in test [6] was 87600 M⁻¹ s⁻¹ and 77000 M⁻¹ s⁻¹ and 84600 M⁻¹ s⁻¹.
